This is an account of results in patent publication US20140286957A1 (Teva, published 2014).

Where two headings read alike, the source gives them in different places.

Assay [1] deals with T1, Human CD1d/β2M (human, UniProt P15813 20-301; P61769 21-119).
T1 construct: also called hCD1d; recombinant human CD1d
Briefly: SPR, transfection supernatant.

For assay [2], the target named is T1, Human CD1d/β2M. Briefly: SPR, transfection supernatant. The source holds these as a separate data set.

B1: 401.11.38 (antibody, name in Kabat numbering, V domains shown)
VH: QVQLVGSGGGLVKPGRSLRLSCAASGFTFDDYAMHWVRQAPGKGLEWVATIIWNSAIIGYADSVKGRFIVSRDNAKNSLYLQMNSLRAEDMALYYCAKSMCSSSGCPDGYFDSWGQGTLVTVSS
VL: DIQMTQSPSSVSASVGDRVTITCRASQHISSWLAWYQQKPGKAPNLLIYAASSLQSGVSSRFSGSGSGTDFTLTISSLQPEDFATYYCQQANRFPLTFGGGTKLEIKR
Regarding B1, the binding result with Human CD1d/β2M [1] is listed as “no binding”.

B2: 401.11.45 (antibody, name in Kabat numbering, V domains shown)
VH: QVQLVGSGGGLVKPGRSLRLSCAASGFTFDDYAMHWVRQAPGKGLEWVATIIWNSAIIGYADSVKGRFIVSRDNAKNSLYLQMNSLRAEDMALYYCAKDRCSSSGCPDGYFDSWGQGTLVTVSS
VL: DIQMTQSPSSVSASVGDRVTITCRASQHISSWLAWYQQKPGKAPNLLIYAASSLQSGVSSRFSGSGSGTDFTLTISSLQPEDFATYYCQQANRFPLTFGGGTKLEIKR
In the assay with Human CD1d/β2M [1], B2 gave a Kd of 0.249 nM.

B3: 401.11.126 (antibody, name in Kabat numbering, V domains shown)
VH: QVQLVGSGGGLVKPGRSLRLSCAASGFTFDDYAMHWVRQAPGKGLEWVATIIWNSAIIGYADSVKGRFIVSRDNAKNSLYLQMNSLRAEDMALYYCAKDMCSSSGCPDGSFDSWGQGTLVTVSS
VL: DIQMTQSPSSVSASVGDRVTITCRASQHISSWLAWYQQKPGKAPNLLIYAASSLQSGVSSRFSGSGSGTDFTLTISSLQPEDFATYYCQQANRFPLTFGGGTKLEIKR
In the case of B3, the Kd in the assay with Human CD1d/β2M [2] amounted to 0.0313 nM.

B4: 401.11.125 (antibody, name in Kabat numbering, V domains shown)
VH: QVQLVGSGGGLVKPGRSLRLSCAASGFTFDDYAMHWVRQAPGKGLEWVATIIWNSAIIGYADSVKGRFIVSRDNAKNSLYLQMNSLRAEDMALYYCAKDMCSSSGCPDGFFDSWGQGTLVTVSS
VL: DIQMTQSPSSVSASVGDRVTITCRASQHISSWLAWYQQKPGKAPNLLIYAASSLQSGVSSRFSGSGSGTDFTLTISSLQPEDFATYYCQQANRFPLTFGGGTKLEIKR
B4 displayed a Kd with Human CD1d/β2M [2] of 0.535 nM.

B5: 401.11.61 (antibody, name in Kabat numbering, V domains shown)
VH: QVQLVGSGGGLVKPGRSLRLSCAASGFTFDDYAMHWVRQAPGKGLEWVATIIWNSAIIGYADSVKGRFIVSRDNAKNSLYLQMNSLRAEDMALYYCAKDMCTSSGCPDGYFDSWGQGTLVTVSS
VL: DIQMTQSPSSVSASVGDRVTITCRASQHISSWLAWYQQKPGKAPNLLIYAASSLQSGVSSRFSGSGSGTDFTLTISSLQPEDFATYYCQQANRFPLTFGGGTKLEIKR
In turn, B5 registered a Kd with Human CD1d/β2M [1] of 0.242 nM.

B6: 401.11.49 (antibody, name in Kabat numbering, V domains shown)
VH: QVQLVGSGGGLVKPGRSLRLSCAASGFTFDDYAMHWVRQAPGKGLEWVATIIWNSAIIGYADSVKGRFIVSRDNAKNSLYLQMNSLRAEDMALYYCAKDSCSSSGCPDGYFDSWGQGTLVTVSS
VL: DIQMTQSPSSVSASVGDRVTITCRASQHISSWLAWYQQKPGKAPNLLIYAASSLQSGVSSRFSGSGSGTDFTLTISSLQPEDFATYYCQQANRFPLTFGGGTKLEIKR
On to B6, for which binding with Human CD1d/β2M [1] was characterised by a dissociation constant (Kd) of 0.401 nM.

B7: 401.11.135 (antibody, name in Kabat numbering, V domains shown)
VH: QVQLVGSGGGLVKPGRSLRLSCAASGFTFDDYAMHWVRQAPGKGLEWVATIIWNSAIIGYADSVKGRFIVSRDNAKNSLYLQMNSLRAEDMALYYCAKDMCSSSGCPDGYFDVWGQGTLVTVSS
VL: DIQMTQSPSSVSASVGDRVTITCRASQHISSWLAWYQQKPGKAPNLLIYAASSLQSGVSSRFSGSGSGTDFTLTISSLQPEDFATYYCQQANRFPLTFGGGTKLEIKR
Molecule B7 returned a Kd with Human CD1d/β2M [2] of 0.421 nM.

B8: 401.11.133 (antibody, name in Kabat numbering, V domains shown)
VH: QVQLVGSGGGLVKPGRSLRLSCAASGFTFDDYAMHWVRQAPGKGLEWVATIIWNSAIIGYADSVKGRFIVSRDNAKNSLYLQMNSLRAEDMALYYCAKDMCSSSGCPDGYFDWWGQGTLVTVSS
VL: DIQMTQSPSSVSASVGDRVTITCRASQHISSWLAWYQQKPGKAPNLLIYAASSLQSGVSSRFSGSGSGTDFTLTISSLQPEDFATYYCQQANRFPLTFGGGTKLEIKR
As for B8, the Kd with Human CD1d/β2M [2] was found to be 0.167 nM.

B9: 401.11.44 (antibody, name in Kabat numbering, V domains shown)
VH: QVQLVGSGGGLVKPGRSLRLSCAASGFTFDDYAMHWVRQAPGKGLEWVATIIWNSAIIGYADSVKGRFIVSRDNAKNSLYLQMNSLRAEDMALYYCAKDKCSSSGCPDGYFDSWGQGTLVTVSS
VL: DIQMTQSPSSVSASVGDRVTITCRASQHISSWLAWYQQKPGKAPNLLIYAASSLQSGVSSRFSGSGSGTDFTLTISSLQPEDFATYYCQQANRFPLTFGGGTKLEIKR
With B9, the affinity with Human CD1d/β2M [1], expressed as Kd, was 0.431 nM.

B10: 401.11.127 (antibody, name in Kabat numbering, V domains shown)
VH: QVQLVGSGGGLVKPGRSLRLSCAASGFTFDDYAMHWVRQAPGKGLEWVATIIWNSAIIGYADSVKGRFIVSRDNAKNSLYLQMNSLRAEDMALYYCAKDMCSSSGCPDGQFDSWGQGTLVTVSS
VL: DIQMTQSPSSVSASVGDRVTITCRASQHISSWLAWYQQKPGKAPNLLIYAASSLQSGVSSRFSGSGSGTDFTLTISSLQPEDFATYYCQQANRFPLTFGGGTKLEIKR
For the molecule B10, in the assay with Human CD1d/β2M [2], binding was put at a Kd of 2.7 nM.

B11: 401.11.132 (antibody, name in Kabat numbering, V domains shown)
VH: QVQLVGSGGGLVKPGRSLRLSCAASGFTFDDYAMHWVRQAPGKGLEWVATIIWNSAIIGYADSVKGRFIVSRDNAKNSLYLQMNSLRAEDMALYYCAKDMCSSSGCPDGYFDTWGQGTLVTVSS
VL: DIQMTQSPSSVSASVGDRVTITCRASQHISSWLAWYQQKPGKAPNLLIYAASSLQSGVSSRFSGSGSGTDFTLTISSLQPEDFATYYCQQANRFPLTFGGGTKLEIKR
On to B11, for which the dissociation constant Kd with Human CD1d/β2M [2] amounted to 0.569 nM.

B12: 401.11.138 (antibody, name in Kabat numbering, V domains shown)
VH: QVQLVGSGGGLVKPGRSLRLSCAASGFTFDDYAMHWVRQAPGKGLEWVATIIWNSAIIGYADSVKGRFIVSRDNAKNSLYLQMNSLRAEDMALYYCAKDMCSSSGCPDGYFDYWGQGTLVTVSS
VL: DIQMTQSPSSVSASVGDRVTITCRASQHISSWLAWYQQKPGKAPNLLIYAASSLQSGVSSRFSGSGSGTDFTLTISSLQPEDFATYYCQQANRFPLTFGGGTKLEIKR
For B12, in the assay with Human CD1d/β2M [2], the Kd amounted to 0.171 nM.

B13: 401.11.139 (antibody, name in Kabat numbering, V domains shown)
VH: QVQLVGSGGGLVKPGRSLRLSCAASGFTFDDYAMHWVRQAPGKGLEWVATIIWNSAIIGYADSVKGRFIVSRDNAKNSLYLQMNSLRAEDMALYYCAKDMCSSSGCPDGYFDGWGQGTLVTVSS
VL: DIQMTQSPSSVSASVGDRVTITCRASQHISSWLAWYQQKPGKAPNLLIYAASSLQSGVSSRFSGSGSGTDFTLTISSLQPEDFATYYCQQANRFPLTFGGGTKLEIKR
In turn, B13 returned a Kd with Human CD1d/β2M [2] of 0.594 nM.

B14: 401.11.124 (antibody, name in Kabat numbering, V domains shown)
VH: QVQLVGSGGGLVKPGRSLRLSCAASGFTFDDYAMHWVRQAPGKGLEWVATIIWNSAIIGYADSVKGRFIVSRDNAKNSLYLQMNSLRAEDMALYYCAKDMCSSSGCPDGWFDSWGQGTLVTVSS
VL: DIQMTQSPSSVSASVGDRVTITCRASQHISSWLAWYQQKPGKAPNLLIYAASSLQSGVSSRFSGSGSGTDFTLTISSLQPEDFATYYCQQANRFPLTFGGGTKLEIKR
Molecule B14 returned a Kd in the assay with Human CD1d/β2M [2] of 1.38 nM.

B15: 401.11.131 (antibody, name in Kabat numbering, V domains shown)
VH: QVQLVGSGGGLVKPGRSLRLSCAASGFTFDDYAMHWVRQAPGKGLEWVATIIWNSAIIGYADSVKGRFIVSRDNAKNSLYLQMNSLRAEDMALYYCAKDMCSSSGCPDGYFDDWGQGTLVTVSS
VL: DIQMTQSPSSVSASVGDRVTITCRASQHISSWLAWYQQKPGKAPNLLIYAASSLQSGVSSRFSGSGSGTDFTLTISSLQPEDFATYYCQQANRFPLTFGGGTKLEIKR
Molecule B15 came in with a Kd with Human CD1d/β2M [2] of 0.2 nM.

B16: 401.11.137 (antibody, name in Kabat numbering, V domains shown)
VH: QVQLVGSGGGLVKPGRSLRLSCAASGFTFDDYAMHWVRQAPGKGLEWVATIIWNSAIIGYADSVKGRFIVSRDNAKNSLYLQMNSLRAEDMALYYCAKDMCSSSGCPDGYFDRWGQGTLVTVSS
VL: DIQMTQSPSSVSASVGDRVTITCRASQHISSWLAWYQQKPGKAPNLLIYAASSLQSGVSSRFSGSGSGTDFTLTISSLQPEDFATYYCQQANRFPLTFGGGTKLEIKR
B16: the equilibrium dissociation constant (Kd) with Human CD1d/β2M [2] is 0.938 nM.

B17: 401.11.50 (antibody, name in Kabat numbering, V domains shown)
VH: QVQLVGSGGGLVKPGRSLRLSCAASGFTFDDYAMHWVRQAPGKGLEWVATIIWNSAIIGYADSVKGRFIVSRDNAKNSLYLQMNSLRAEDMALYYCAKDGCSSSGCPDGYFDSWGQGTLVTVSS
VL: DIQMTQSPSSVSASVGDRVTITCRASQHISSWLAWYQQKPGKAPNLLIYAASSLQSGVSSRFSGSGSGTDFTLTISSLQPEDFATYYCQQANRFPLTFGGGTKLEIKR
Regarding B17, binding with Human CD1d/β2M [1] was characterised by a dissociation constant (Kd) of 0.187 nM.

B18: 401.11.46 (antibody, name in Kabat numbering, V domains shown)
VH: QVQLVGSGGGLVKPGRSLRLSCAASGFTFDDYAMHWVRQAPGKGLEWVATIIWNSAIIGYADSVKGRFIVSRDNAKNSLYLQMNSLRAEDMALYYCAKDFCSSSGCPDGYFDSWGQGTLVTVSS
VL: DIQMTQSPSSVSASVGDRVTITCRASQHISSWLAWYQQKPGKAPNLLIYAASSLQSGVSSRFSGSGSGTDFTLTISSLQPEDFATYYCQQANRFPLTFGGGTKLEIKR
Take B18: the Kd with Human CD1d/β2M [1] turned out to be 0.303 nM.

B19: 401.11.123 (antibody, name in Kabat numbering, V domains shown)
VH: QVQLVGSGGGLVKPGRSLRLSCAASGFTFDDYAMHWVRQAPGKGLEWVATIIWNSAIIGYADSVKGRFIVSRDNAKNSLYLQMNSLRAEDMALYYCAKDMCSSSGCPDRYFDSWGQGTLVTVSS
VL: DIQMTQSPSSVSASVGDRVTITCRASQHISSWLAWYQQKPGKAPNLLIYAASSLQSGVSSRFSGSGSGTDFTLTISSLQPEDFATYYCQQANRFPLTFGGGTKLEIKR
In turn, B19 had a Kd in the assay with Human CD1d/β2M [2] of 0.239 nM.

B20: 401.11.136 (antibody, name in Kabat numbering, V domains shown)
VH: QVQLVGSGGGLVKPGRSLRLSCAASGFTFDDYAMHWVRQAPGKGLEWVATIIWNSAIIGYADSVKGRFIVSRDNAKNSLYLQMNSLRAEDMALYYCAKDMCSSSGCPDGYFDKWGQGTLVTVSS
VL: DIQMTQSPSSVSASVGDRVTITCRASQHISSWLAWYQQKPGKAPNLLIYAASSLQSGVSSRFSGSGSGTDFTLTISSLQPEDFATYYCQQANRFPLTFGGGTKLEIKR
With B20, the Kd with Human CD1d/β2M [2] is under 0.01 nM.

B21: 401.11.134 (antibody, name in Kabat numbering, V domains shown)
VH: QVQLVGSGGGLVKPGRSLRLSCAASGFTFDDYAMHWVRQAPGKGLEWVATIIWNSAIIGYADSVKGRFIVSRDNAKNSLYLQMNSLRAEDMALYYCAKDMCSSSGCPDGYFDLWGQGTLVTVSS
VL: DIQMTQSPSSVSASVGDRVTITCRASQHISSWLAWYQQKPGKAPNLLIYAASSLQSGVSSRFSGSGSGTDFTLTISSLQPEDFATYYCQQANRFPLTFGGGTKLEIKR
In the assay with Human CD1d/β2M [2], B21 gave a Kd of 0.532 nM.
